This is an account of results in the Human Domainome abundance scans (Beltran et al. 2025).

± gives the uncertainty stated by the source.

Sequences and labels used below:
B1: Cold shock protein CspB, residues 1 to 66; numbered along this chain, P41016 (parent)
chain: MQRGKVKWFNNEKGYGFIEVEGGSDVFVHFTAIQGEGFKTLEEGQEVSFEIVQGNRGPQAANVVKL

Variants of B1 are the subject of this series. Nature of the series: abundance fitness (aPCA) (normalised: wild type 0, dead -1); higher = more abundant; growth selection in yeast, the domain comes from the species named. Conditions: Bacillus caldolyticus.
Consider I51N, for which the abundance fitness was -0.071 ± 0.074.
The same measure for I51T: -0.033 ± 0.048; for I51V: 0.009 ± 0.049; for I51Q: 0.007 ± 0.047.
For I51W, the abundance fitness is -0.041 ± 0.039.
I51Y: the abundance fitness came to 0.037 ± 0.089.
To I51R belongs -0.004 ± 0.034.
To I51P belongs -0.023 ± 0.05; to N55F, 0.046 ± 0.43; to N55I, 0.059 ± 0.13.
To N55K belongs 0.018 ± 0.15; to N55S, 0.049 ± 0.092.
In the case of N55Q, the abundance fitness is -0.042 ± 0.18.
On to N55G, for which the abundance fitness is -0.064 ± 0.12.
N55R: the abundance fitness was -0.075 ± 0.094.
Turning to N55A, the abundance fitness is -0.035 ± 0.16.
Turning to N55C, the abundance fitness is -0.089 ± 0.17.
As to N55E, the abundance fitness was -0.043 ± 0.31.
For N55L, the abundance fitness was -0.035 ± 0.11.
With N55D, the abundance fitness is -0.309 ± 0.28.
Consider N55W, for which the abundance fitness was 0.002 ± 0.22.
For the variant N55T, the abundance fitness was -0.256 ± 0.18.
Regarding N55P, the abundance fitness is -0.026 ± 0.15.
With N55V, the abundance fitness stood at 0.005 ± 0.099.
On to R56P, for which the abundance fitness was -0.062 ± 0.048.
Regarding R56C, the abundance fitness is -0.097 ± 0.057.
Consider R56G, for which the abundance fitness is -0.081 ± 0.039.
Consider R56Q, for which the abundance fitness is -0.044 ± 0.062.
On to R56K, for which the abundance fitness was 0.003 ± 0.057.
Regarding R56V, the abundance fitness is -0.1 ± 0.04.
The same measure for R56W: -0.207 ± 0.045.
To R56D belongs -0.175 ± 0.079.
R56N: the abundance fitness came out at 0.018 ± 0.1.
R56F: the abundance fitness was -0.181 ± 0.05.
As for R56Y, the abundance fitness is -0.131 ± 0.065.
Take R56A: the abundance fitness is -0.069 ± 0.049.
With R56I, the abundance fitness is -0.143 ± 0.093.
With R56T, the abundance fitness was -0.142 ± 0.055.
Take R56M: the abundance fitness is -0.068 ± 0.064.
Regarding R56E, the abundance fitness is -0.066 ± 0.053.
With R56S, the abundance fitness is -0.088 ± 0.038.
As to R56H, the abundance fitness was -0.069 ± 0.059.
Turning to Q53D, the abundance fitness turned out to be 0.022 ± 0.093.
With Q53A, the abundance fitness was -0.002 ± 0.045.
For Q53N, the abundance fitness is 0.004 ± 0.071.
For Q53S, the abundance fitness was -0.03 ± 0.036.
In the case of Q53L, the abundance fitness is -0.027 ± 0.028.
Consider Q53H, for which the abundance fitness is -0.046 ± 0.08.
On to Q53P, for which the abundance fitness was -0.092 ± 0.041.
Q53W: the abundance fitness came to 0.007 ± 0.052.
In the case of Q53V, the abundance fitness is -0.001 ± 0.04.
Take Q53T: the abundance fitness stood at 0.018 ± 0.044.
Turning to Q53K, the abundance fitness is -0.033 ± 0.052.
The same measure for Q53E: 0.003 ± 0.052.
Consider Q53M, for which the abundance fitness came to 0.01 ± 0.044.
With Q53R, the abundance fitness was -0.002 ± 0.043.
On to G54C, for which the abundance fitness was -0.013 ± 0.047.
G54D: the abundance fitness was -0.07 ± 0.067.
Consider G54V, for which the abundance fitness was -0.171 ± 0.068.
As for G54I, the abundance fitness was -0.227 ± 0.13.
To G54E belongs -0.106 ± 0.059; to G54M, -0.236 ± 0.18; to G54S, -0.026 ± 0.034.
For the variant G54K, the abundance fitness is -0.038 ± 0.098.
Turning to G54L, the abundance fitness is -0.131 ± 0.052.
For the variant G54P, the abundance fitness is -0.308 ± 0.062.
G54R: the abundance fitness was -0.044 ± 0.037.
Turning to G54A, the abundance fitness was -0.028 ± 0.061.
Consider G54W, for which the abundance fitness was -0.18 ± 0.036.
The same measure for G54F: -0.127 ± 0.075.
For G54H, the abundance fitness was found to be 0.045 ± 0.11.
Consider G54N, for which the abundance fitness was -0.11 ± 0.12.
As for G54T, the abundance fitness came out at 0.01 ± 0.068.
For A60G, the abundance fitness was -0.171 ± 0.037.
For the variant A60L, the abundance fitness was -0.636 ± 0.033.
In the case of A60E, the abundance fitness is -0.812 ± 0.073.
Regarding A60H, the abundance fitness is -0.771 ± 0.099.
In the case of A60S, the abundance fitness was -0.14 ± 0.034.
In the case of A60N, the abundance fitness was -1.08 ± 0.21.
To A60V belongs -0.254 ± 0.031.
For the variant A60C, the abundance fitness is -0.115 ± 0.085.
In the case of A60F, the abundance fitness is -0.79 ± 0.078.
Regarding A60M, the abundance fitness is -0.752 ± 0.062.
Regarding A60Q, the abundance fitness is -0.717 ± 0.064.
As to A60T, the abundance fitness was -0.487 ± 0.043.
For the variant A60W, the abundance fitness is -1 ± 0.14.
Q59P: the abundance fitness was -0.733 ± 0.081.
As for Q59G, the abundance fitness was -0.192 ± 0.035.
As for Q59D, the abundance fitness was -0.429 ± 0.072.
To Q59K belongs 0.059 ± 0.055.
To Q59T belongs -0.035 ± 0.042; to Q59N, -0.082 ± 0.092.
For the variant Q59C, the abundance fitness is -0.05 ± 0.061.
To Q59S belongs -0.01 ± 0.028; to Q59I, -0.08 ± 0.063; to Q59Y, -0.012 ± 0.065.
For Q59H, the abundance fitness is -0.02 ± 0.068.
The same measure for Q59L: 0.016 ± 0.025.
For Q59A, the abundance fitness is -0.003 ± 0.031.
Turning to Q59F, the abundance fitness worked out at 0.061 ± 0.056.
The same measure for Q59R: 0.092 ± 0.033; for Q59W: -0.029 ± 0.036; for Q59E: -0.103 ± 0.041.
Turning to Q59M, the abundance fitness is -0.011 ± 0.044.
The same measure for Q59V: -0.029 ± 0.039; for P58Q: -0.015 ± 0.052; for P58D: -0.037 ± 0.059.
To P58A belongs 0 ± 0.047.
As to P58E, the abundance fitness was -0.017 ± 0.058.
For P58G, the abundance fitness was -0.082 ± 0.039.
The same measure for P58V: -0.021 ± 0.035.
To P58W belongs -0.016 ± 0.047; to P58R, -0.029 ± 0.044; to P58F, -0.046 ± 0.055.
Turning to P58I, the abundance fitness is -0.055 ± 0.072.
The same measure for P58M: 0.006 ± 0.041; for P58K: -0.036 ± 0.052.
To P58C belongs -0.083 ± 0.059; to P58S, -0.026 ± 0.038.
With P58H, the abundance fitness is -0.142 ± 0.12.
As for P58Y, the abundance fitness is -0.066 ± 0.073.
As to P58L, the abundance fitness was -0.018 ± 0.028.
Turning to V52E, the abundance fitness was -0.004 ± 0.037.
V52S: the abundance fitness was -0.018 ± 0.039.
To V52W belongs -0.053 ± 0.048.
The same measure for V52H: -0.033 ± 0.075.
With V52Q, the abundance fitness is -0.001 ± 0.054.
To V52D belongs -0.092 ± 0.072; to V52N, -0.02 ± 0.093.
Consider V52Y, for which the abundance fitness was -0.043 ± 0.092.
To V52G belongs -0.029 ± 0.035; to V52F, -0.029 ± 0.064; to V52M, 0.038 ± 0.059.
For V52I, the abundance fitness is -0.018 ± 0.048.
For V52A, the abundance fitness came out at 0.029 ± 0.037.
On to V52P, for which the abundance fitness is -0.514 ± 0.048.
For V52C, the abundance fitness was -0.014 ± 0.077.
For the variant V52R, the abundance fitness worked out at 0.009 ± 0.032.
As for V52T, the abundance fitness is 0.012 ± 0.027.
With G57P, the abundance fitness was -0.278 ± 0.042.
As for G57H, the abundance fitness was -0.195 ± 0.061.
G57D: the abundance fitness is -0.249 ± 0.051.
For G57V, the abundance fitness is -0.238 ± 0.029.
To G57N belongs -0.223 ± 0.066; to G57I, -0.231 ± 0.045.
Consider G57L, for which the abundance fitness is -0.158 ± 0.034.
Regarding G57Q, the abundance fitness was -0.116 ± 0.048.
For the variant G57C, the abundance fitness was -0.163 ± 0.055.
G57E: the abundance fitness was -0.213 ± 0.045.
As to G57Y, the abundance fitness is -0.127 ± 0.058.
For the variant G57T, the abundance fitness is -0.089 ± 0.049.
In the case of G57K, the abundance fitness is -0.081 ± 0.054.
For the variant G57A, the abundance fitness is -0.145 ± 0.042.
As to G57S, the abundance fitness was -0.093 ± 0.036.
G57W: the abundance fitness was -0.256 ± 0.049.
For G57F, the abundance fitness was -0.237 ± 0.052.
The same measure for G57R: -0.089 ± 0.036; for A61M: 0.022 ± 0.21; for A61D: -0.024 ± 0.073.
Turning to A61H, the abundance fitness was -0.004 ± 0.072.
Take A61L: the abundance fitness is -0.067 ± 0.044.
A61C: the abundance fitness was -0.03 ± 0.047.
As to A61I, the abundance fitness is 0.01 ± 0.079.
Consider A61E, for which the abundance fitness is -0.051 ± 0.048.
Take A61K: the abundance fitness turned out to be 0.02 ± 0.046.
For A61N, the abundance fitness is -0.061 ± 0.063.
Regarding A61F, the abundance fitness was -0.06 ± 0.047.
